The target of this experiment is GST-DLG1 PDZ domains 1-2 fusion protein (human) (UniProt Q12959). Nature of the experiment: variant of the G assay; 100 uM unlabeled 8-mer with 20 uM biotin-labeled AA2L on immobilized GST-DLG1.

“CLASP-2 C-terminal 8-mer peptide MTSSSSVV (unlabeled)” showed a percent inhibition of labeled AA2L CLASP-2 peptide binding greater than 50%.

For the origin of these results see patent US6942981.
